Data published in paper PMC10626271 (FEBS Open Bio, 2023).

Experiments:
[1] = target: T1, C-terminal domain of ASPL (ASPL-C, residues 313-553) (human, UniProt Q9BZE9 313-553); experiment: SPR; ASPL-C immobilised on CM5 chip by amine coupling (1000 RU); analytes 0.6 to 83 μM in 10 mM HEPES, 150 mM NaCl, 0.005% Tween20, pH 7.4; BIAcore 3000, duplicates; one-site specific binding fit of the response against concentration; no saturation reached; conditions: both partners purified
T1 construct: the 26 kDa printed for ASPL-C in the cross-linking experiment fits the chain without GST; The cited crystal structure covers residues 317-499; source: E. coli BL21 DE3 Rosetta2, purified (glutathione-Sepharose 4B, Superdex 75 SEC)
T1 sequence (looked up): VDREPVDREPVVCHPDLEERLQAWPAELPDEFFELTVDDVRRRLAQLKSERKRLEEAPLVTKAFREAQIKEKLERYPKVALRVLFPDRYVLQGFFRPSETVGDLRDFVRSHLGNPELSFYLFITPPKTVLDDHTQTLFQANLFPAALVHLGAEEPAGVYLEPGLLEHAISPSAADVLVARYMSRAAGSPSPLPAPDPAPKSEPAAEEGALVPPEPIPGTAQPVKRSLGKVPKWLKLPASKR

[2] = target: the molecule itself; experiment: SEC; Superdex 75 increase 10/300 of Ni-NTA purified Trx-ICH_(GLUT4)

B1: Thioredoxin fused C-terminally with human GLUT4 intracellular helical bundle (residues 225-271, I232C/K264C) (domain or fragment, UniProt P14672 225-271, looked up)
chain: ESPRYLYCIQNLEGPARKSLKRLTGWADVSGVLAELKDECRKLERER
notes: human GLUT4 intracellular helical bundle (ICH) between TM6 and TM7, residues 225-271, with I232C and K264C to form a stabilising disulphide bond; Synthetic gene (GenScript) in pET24a; 18 kDa monomer; a 36 kDa peak was also seen on SEC; also called Trx-ICH_(GLUT4); ICH_(GLUT4); source: E. coli TUNER (DE3), purified (Ni-NTA, Superdex 75 SEC; monomer peak used); not shown: Trx (thioredoxin), …
- Kd [1]: 68 µM
- stoichiometry N [2]: 2
